Results reported in paper PMC6366900, “Pat1 promotes processing body assembly by enhancing the phase separation of the DEAD-box ATPase Dhh1 and RNA” (eLife, 2019).
Where a chain is given by its changes, count along the chain named. One block for each binder: values may come before it.

Biological target: T1, Dhh1 (full-length) (S. cerevisiae, UniProt P39517 1-506)
T1 construct: Dhh1, DEAD-box ATPase, S. cerevisiae, full-length; also called DEAD-box ATPase Dhh1; source: purified as described previously (Mugler et al., 2016)
T1 sequence (looked up): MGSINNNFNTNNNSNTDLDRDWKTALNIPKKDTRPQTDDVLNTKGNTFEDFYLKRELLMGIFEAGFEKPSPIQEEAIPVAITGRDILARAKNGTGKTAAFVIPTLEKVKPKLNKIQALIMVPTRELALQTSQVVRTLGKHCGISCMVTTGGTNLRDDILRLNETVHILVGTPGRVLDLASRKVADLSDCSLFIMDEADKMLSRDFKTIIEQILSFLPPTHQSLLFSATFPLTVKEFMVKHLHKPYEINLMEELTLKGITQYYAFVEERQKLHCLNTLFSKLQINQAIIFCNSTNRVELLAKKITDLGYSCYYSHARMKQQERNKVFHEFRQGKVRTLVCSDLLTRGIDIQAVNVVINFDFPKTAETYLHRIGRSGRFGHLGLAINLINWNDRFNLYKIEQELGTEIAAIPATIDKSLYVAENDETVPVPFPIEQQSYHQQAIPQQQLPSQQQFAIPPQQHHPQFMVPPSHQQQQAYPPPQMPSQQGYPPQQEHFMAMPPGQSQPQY
Experiment: pull-down; GST-Pat1-NC and mutants bound to GST-slurry as bait, Dhh1 as prey; 1 hr at 4°C; wash buffer 300 mM NaCl, 10 mM Tris pH 7.5, 0.05 % NP40, washed five times; 12% acrylamide gel, Coomassie
Settings: both partners purified

binding result: binds
B1: GST-Pat1-NC (domain or fragment, S. cerevisiae)
chain: GLENSGNARDGPLDFEESYKGYGEHELEENDYLNDETFGDNVQVGTDFDFGNPHSSGSSGNAIGGNGVGATARSYGGSGGSGGSGGSSSYAFNNGNGATNLNKSGGKKFILELIETVYEEILDLEANLRNGQQTDSTAMWEALHIDDSSYDVNPFISMLSFDKGIKIMPRIFNFLDKQQKLKILQKIFNELSHLQIIILSSYKTTPKPTLTQLKKVDLFQMIILKIIVSFLSNNSNFIEIMGLLLQLIRNNNVSFLTTSKIGLNLITILISRAALIKQDSSRSNILSSPEISTWNEIYDKLFTSLESKIQLIFPPREYNDHIMRLQNDKFMDEAYIWQFLASLALSGKLNHQRIIIDEVRDEIFATINEAETLQKKEKELSVLPQRSQELDTELKSIIYNKEKLYQDLNLFLNVMGLVY
notes: Pat1, S. cerevisiae, N-terminal fragment (Pat1-N), amino acids 5-79; linker, printed as (GGS)4; Cloned into a pETM-CN vector; The His and GST tags were cleaved unless required for pull-down assays; In the droplet assay (functional rows) the protein was Pat1-NC-GFP, not the GST form; also called recombinant Pat1-NC protein; source: E. coli BL21 DE3, purified (Ni2+ sepharose, Superdex 200); not …

binding result: binds
B2: GST-Pat1-NC^EE (domain or fragment, S. cerevisiae)
chain: B1 chain with S88E, S89E
notes: Pat1, S. cerevisiae, N-terminal fragment (Pat1-N), amino acids 5-79; linker, printed as (GGS)4; Mutant of m1; also called Pat1^EE; phospho-mimetic mutant; source: E. coli BL21 DE3, purified (Ni2+ sepharose, Superdex 200); not shown: GST, N-terminal, kept
